Test results as given in patent US20120122783A1 (INDIANA UNIVERSITY RESEARCH AND TECHOLOGY, published 2012).
Values joined by “and” are separate entries in the source; they are usually repeats but may differ in a detail not shown here. Equal values may be shown once. Read-outs that look alike come from different tables or passages of the source. Values belong to the molecule of their own block, whether it stands above or below them. Square brackets hold non-standard residues; d marks the D form. Primed or numbered codes have the meaning given here. Ends that are not written are not given here. mPEG‑MAL 20 kDa = maleimido methoxyPEG of about 20 kDa, linked to the Cys sulfur; mPEG‑MAL 5 kDa = maleimido methoxyPEG of about 5 kDa, linked to the Cys sulfur; Abu(4-SO3H) = N[C@@H](CCS(=O)(=O)O)C(=O)O; PhLac = O=C(O)[C@@H](O)Cc1ccccc1; Aad = N[C@@H](CCCC(=O)O)C(=O)O; CH2CH2COOH′ = not defined here

Experiments:
Assay in all cases: cell-based or functional assay
human glucagon receptor [1] = biological target: T1, human glucagon receptor (human, UniProt P47871 26-477)
T1 sequence (P47871 26-477): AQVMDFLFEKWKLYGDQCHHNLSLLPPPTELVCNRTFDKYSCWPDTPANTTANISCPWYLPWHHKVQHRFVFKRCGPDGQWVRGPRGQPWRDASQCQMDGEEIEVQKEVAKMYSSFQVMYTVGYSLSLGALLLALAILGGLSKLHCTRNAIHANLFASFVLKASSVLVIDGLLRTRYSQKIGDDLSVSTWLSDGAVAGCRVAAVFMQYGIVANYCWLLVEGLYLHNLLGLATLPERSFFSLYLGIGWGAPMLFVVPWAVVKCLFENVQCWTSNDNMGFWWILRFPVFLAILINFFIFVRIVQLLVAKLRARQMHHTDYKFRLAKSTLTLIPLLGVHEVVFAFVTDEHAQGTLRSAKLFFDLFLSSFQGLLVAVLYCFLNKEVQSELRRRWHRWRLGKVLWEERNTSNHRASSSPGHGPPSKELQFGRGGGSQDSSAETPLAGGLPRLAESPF

human glucagon receptor [2] = biological target: T1, human glucagon receptor; remark: listed apart in the source
human glucagon receptor [3] = biological target: T1, human glucagon receptor; remark: listed apart in the source
human glucagon receptor [4] = biological target: T1, human glucagon receptor; remark: listed apart in the source
human glucagon receptor [5] = biological target: T1, human glucagon receptor; remark: listed apart in the source
human glucagon receptor [6] = biological target: T1, human glucagon receptor; remark: listed apart in the source

Molecule: Oxyntomodulin C24 PEG 20 K (from UniProt P01275 53-89) (peptide)
cAMP Induction EC50 (human glucagon receptor [1]): 0.97 nM

Molecule: Oxyntomodulin (from UniProt P01275 53-89) (peptide)
cAMP Induction EC50 (human glucagon receptor [1]): 3.25 nM

Molecule: Oxyntomodulin C24 (from UniProt P01275 53-89) (peptide)
cAMP Induction EC50 (human glucagon receptor [1]): 2.54 nM

Molecule: C(3.4 kDa PEG)FTSEYSKYLDSRRAQDFVQWLMNT-NH2 (also: dimer: the two Cys5 joined by 3.4 kDa PEG) [3.4kDaPEG-dimer[C5, E9]Glucagon(aa5-29) -NH2]
IC50 (nM) (cAMP, inhibit 0.2 mM Glucagon) (human glucagon receptor [3]): 1340 nM

Molecule: C(5 kDa PEG)FTSEYSKYLDSRRAQDFVQWLMNT-NH2 [[C5(5kDaPEG), E9]Glucagon(aa5-29) -NH2]
IC50 (nM) (cAMP, inhibit 0.2 mM Glucagon) (human glucagon receptor [3]): 1610 nM

Molecule: FTSDYSKYLDSRRAQDFVQWLMNT-NH2 [Glucagon(aa6-29)-NH2]
cAMP IC50 (human glucagon receptor [4]): 346 nM | cAMP (I/A)50, inhibition index (human glucagon receptor [5]): 1730 ratio

Molecule: FTSKYSKYLDSRRAQDFVQWLMNT-NH2 [[Lys^9]Glucagon(aa6-29)-NH2]
cAMP IC50 (human glucagon receptor [4]): 398 nM | cAMP (I/A)50, inhibition index (human glucagon receptor [5]): 1990 ratio

Molecule: FTSC(CH2CH2COOH′)YSKYLDSRRAQDFVQWLMNT-NH2 [[(CSA-2)^9]Glucagon(aa6-29)-NH2]
cAMP IC50 (human glucagon receptor [4]): 116 nM | cAMP (I/A)50, inhibition index (human glucagon receptor [5]): 580 ratio

Molecule: FTSC(CH2COOH)YSKYLDSRRAQDFVQWLMNT-NH2 [[(CSA-1)^9]Glucagon(aa6-29)-NH2]
cAMP IC50 (human glucagon receptor [4]): 101 nM | cAMP (I/A)50, inhibition index (human glucagon receptor [5]): 506 ratio

Molecule: C(20 kDa PEG)FTSEYSKYLDSRRAQDFVQWLMNT-NH2 [[C5(20kDaPEG), E9]Glucagon(aa5-29) -NH2]
IC50 (nM) (cAMP, inhibit 0.2 mM Glucagon) (human glucagon receptor [3]): 976 nM

Molecule: C(1.2 kDa PEG)FTSEYSKYLDSRRAQDFVQWLMNT-NH2 [[C5(1.2kDaPEG), E9]Glucagon(aa5-29) -NH2]
IC50 (nM) (cAMP, inhibit 0.2 mM Glucagon) (human glucagon receptor [3]): 2280 nM

Molecule: [PhLac]TC(mPEG‑MAL 20 kDa)EYSKYLDSRRAQDFVQWLMNT-NH2 [[PLA6, C8(20kDaPEG), E9]Glucagon(aa6-29)-NH2]
IC50 (nM) (cAMP, inhibit 0.2 mM Glucagon) (human glucagon receptor [3]): 236 nM and 92 nM

Next, values leading:

IC50 (nM) (cAMP, inhibit 0.2 mM Glucagon) (human glucagon receptor [1]): 14800 nM
Molecule: [d-Cys5(20kDaPEG), E9]Glucagon(aa5-29) -NH2 (peptide)

cAMP Induction EC50 (human glucagon receptor [2]): 430 nM
B1: [desHis^1, hCys^9(SO3-), Phe^25, Leu^27] Glucagon-NH2 (peptide)
peptide: SQGTFTS[Abu(4-SO3H)]YSKYLDSRRAQDFVQFLLNT-NH2
modifications: N-terminus assumed
SMILES: CC(C)C[C@H](NC(=O)[C@H](Cc1ccc(O)cc1)NC(=O)[C@H](CCCCN)NC(=O)[C@H](CO)NC(=O)[C@H](Cc1ccc(O)cc1)NC(=O)[C@H](CCS(=O)(=O)O)NC(=O)[C@H](CO)NC(=O)[C@@H](NC(=O)[C@H](Cc1ccccc1)NC(=O)[C@@H](NC(=O)CNC(=O)[C@H](CCC(N)=O)NC(=O)[C@@H](N)CO)[C@@H](C)O)[C@@H](C)O)C(=O)N[C@@H](CC(=O)O)C(=O)N[C@@H](CO)C(=O)N[C@@H](CCCNC(=N)N)C(=O)N[C@@H](CCCNC(=N)N)C(=O)N[C@@H](C)C(=O)N[C@@H](CCC(N)=O)C(=O)N[C@@H](CC(=O)O)C(=O)N[C@@H](Cc1ccccc1)C(=O)N[C@H](C(=O)N[C@@H](CCC(N)=O)C(=O)N[C@@H](Cc1ccccc1)C(=O)N[C@@H](CC(C)C)C(=O)N[C@@H](CC(C)C)C(=O)N[C@@H](CC(N)=O)C(=O)N[C@H](C(N)=O)[C@@H](C)O)C(C)C

cAMP Induction EC50 (human glucagon receptor [2]): 3210 nM | cAMP Inhibition IC50 (human glucagon receptor [2]): 9220 nM
B2: [desHis^1, desPhe^6, hCys^9(SO3-), Phe^25, Leu^27] Glucagon-NH2 (peptide)
peptide: SQGTTS[Abu(4-SO3H)]YSKYLDSRRAQDFVQFLLNT-NH2
modifications: N-terminus assumed
SMILES: CC(C)C[C@H](NC(=O)[C@H](Cc1ccc(O)cc1)NC(=O)[C@H](CCCCN)NC(=O)[C@H](CO)NC(=O)[C@H](Cc1ccc(O)cc1)NC(=O)[C@H](CCS(=O)(=O)O)NC(=O)[C@H](CO)NC(=O)[C@@H](NC(=O)[C@@H](NC(=O)CNC(=O)[C@H](CCC(N)=O)NC(=O)[C@@H](N)CO)[C@@H](C)O)[C@@H](C)O)C(=O)N[C@@H](CC(=O)O)C(=O)N[C@@H](CO)C(=O)N[C@@H](CCCNC(=N)N)C(=O)N[C@@H](CCCNC(=N)N)C(=O)N[C@@H](C)C(=O)N[C@@H](CCC(N)=O)C(=O)N[C@@H](CC(=O)O)C(=O)N[C@@H](Cc1ccccc1)C(=O)N[C@H](C(=O)N[C@@H](CCC(N)=O)C(=O)N[C@@H](Cc1ccccc1)C(=O)N[C@@H](CC(C)C)C(=O)N[C@@H](CC(C)C)C(=O)N[C@@H](CC(N)=O)C(=O)N[C@H](C(N)=O)[C@@H](C)O)C(C)C

cAMP IC50 (human glucagon receptor [4]): 472 nM | cAMP (I/A)50, inhibition index (human glucagon receptor [5]): 2360 ratio
B3: [hGlu^9]Glucagon(aa6-29)-NH2 (peptide)
peptide: FTS[Aad]YSKYLDSRRAQDFVQWLMNT-NH2
modifications: N-terminus assumed
SMILES: CSCC[C@H](NC(=O)[C@H](CC(C)C)NC(=O)[C@H](Cc1c[nH]c2ccccc12)NC(=O)[C@H](CCC(N)=O)NC(=O)[C@@H](NC(=O)[C@H](Cc1ccccc1)NC(=O)[C@H](CC(=O)O)NC(=O)[C@H](CCC(N)=O)NC(=O)[C@H](C)NC(=O)[C@H](CCCNC(=N)N)NC(=O)[C@H](CCCNC(=N)N)NC(=O)[C@H](CO)NC(=O)[C@H](CC(=O)O)NC(=O)[C@H](CC(C)C)NC(=O)[C@H](Cc1ccc(O)cc1)NC(=O)[C@H](CCCCN)NC(=O)[C@H](CO)NC(=O)[C@H](Cc1ccc(O)cc1)NC(=O)[C@H](CCCC(=O)O)NC(=O)[C@H](CO)NC(=O)[C@@H](NC(=O)[C@@H](N)Cc1ccccc1)[C@@H](C)O)C(C)C)C(=O)N[C@@H](CC(N)=O)C(=O)N[C@H](C(N)=O)[C@@H](C)O

cAMP Induction EC50 (human glucagon receptor [2]): 1610 nM | cAMP Inhibition IC50 (human glucagon receptor [2]): 4460 nM
B4: [desHis^1, Leu^4, hCys^9(SO3-), Phe^25, Leu^27] Glucagon-NH2 (peptide)
peptide: SQLTFTS[Abu(4-SO3H)]YSKYLDSRRAQDFVQFLLNT-NH2
modifications: N-terminus assumed
SMILES: CC(C)C[C@H](NC(=O)[C@H](Cc1ccc(O)cc1)NC(=O)[C@H](CCCCN)NC(=O)[C@H](CO)NC(=O)[C@H](Cc1ccc(O)cc1)NC(=O)[C@H](CCS(=O)(=O)O)NC(=O)[C@H](CO)NC(=O)[C@@H](NC(=O)[C@H](Cc1ccccc1)NC(=O)[C@@H](NC(=O)[C@H](CC(C)C)NC(=O)[C@H](CCC(N)=O)NC(=O)[C@@H](N)CO)[C@@H](C)O)[C@@H](C)O)C(=O)N[C@@H](CC(=O)O)C(=O)N[C@@H](CO)C(=O)N[C@@H](CCCNC(=N)N)C(=O)N[C@@H](CCCNC(=N)N)C(=O)N[C@@H](C)C(=O)N[C@@H](CCC(N)=O)C(=O)N[C@@H](CC(=O)O)C(=O)N[C@@H](Cc1ccccc1)C(=O)N[C@H](C(=O)N[C@@H](CCC(N)=O)C(=O)N[C@@H](Cc1ccccc1)C(=O)N[C@@H](CC(C)C)C(=O)N[C@@H](CC(C)C)C(=O)N[C@@H](CC(N)=O)C(=O)N[C@H](C(N)=O)[C@@H](C)O)C(C)C

IC50 (nM) (cAMP, inhibit 0.2 mM Glucagon) (human glucagon receptor [3]): 126 nM
Molecule: [PhLac]TSEYSKYLDSRRAQDFVC(mPEG‑MAL 20 kDa)WLMNT-NH2 [[PLA6, E9, C24(20kDaPEG)]Glucagon(aa6-29)-NH2]

IC50 (nM) (cAMP, inhibit Glucagon) 0.1 nM or 0.2 nM (human glucagon receptor [6]): 13.2 nM
B5: [PLA6, D9]Glucagon(aa6-29)-COOH (peptide)
peptide: [PhLac]TSDYSKYLDSRRAQDFVQWLMNT-OH
modifications: N-terminus assumed
SMILES: CSCC[C@H](NC(=O)[C@H](CC(C)C)NC(=O)[C@H](Cc1c[nH]c2ccccc12)NC(=O)[C@H](CCC(N)=O)NC(=O)[C@@H](NC(=O)[C@H](Cc1ccccc1)NC(=O)[C@H](CC(=O)O)NC(=O)[C@H](CCC(N)=O)NC(=O)[C@H](C)NC(=O)[C@H](CCCNC(=N)N)NC(=O)[C@H](CCCNC(=N)N)NC(=O)[C@H](CO)NC(=O)[C@H](CC(=O)O)NC(=O)[C@H](CC(C)C)NC(=O)[C@H](Cc1ccc(O)cc1)NC(=O)[C@H](CCCCN)NC(=O)[C@H](CO)NC(=O)[C@H](Cc1ccc(O)cc1)NC(=O)[C@H](CC(=O)O)NC(=O)[C@H](CO)NC(=O)[C@@H](NC(=O)[C@@H](O)Cc1ccccc1)[C@@H](C)O)C(C)C)C(=O)N[C@@H](CC(N)=O)C(=O)N[C@H](C(=O)O)[C@@H](C)O

IC50 (nM) (cAMP, inhibit Glucagon) 0.1 nM or 0.2 nM (human glucagon receptor [6]): 6.9 nM
B6: [PLA6, D9]Glucagon(aa6-29)-NH2 (peptide)
peptide: [PhLac]TSDYSKYLDSRRAQDFVQWLMNT-NH2
modifications: N-terminus assumed
SMILES: CSCC[C@H](NC(=O)[C@H](CC(C)C)NC(=O)[C@H](Cc1c[nH]c2ccccc12)NC(=O)[C@H](CCC(N)=O)NC(=O)[C@@H](NC(=O)[C@H](Cc1ccccc1)NC(=O)[C@H](CC(=O)O)NC(=O)[C@H](CCC(N)=O)NC(=O)[C@H](C)NC(=O)[C@H](CCCNC(=N)N)NC(=O)[C@H](CCCNC(=N)N)NC(=O)[C@H](CO)NC(=O)[C@H](CC(=O)O)NC(=O)[C@H](CC(C)C)NC(=O)[C@H](Cc1ccc(O)cc1)NC(=O)[C@H](CCCCN)NC(=O)[C@H](CO)NC(=O)[C@H](Cc1ccc(O)cc1)NC(=O)[C@H](CC(=O)O)NC(=O)[C@H](CO)NC(=O)[C@@H](NC(=O)[C@@H](O)Cc1ccccc1)[C@@H](C)O)C(C)C)C(=O)N[C@@H](CC(N)=O)C(=O)N[C@H](C(N)=O)[C@@H](C)O

IC50 (nM) (cAMP, inhibit 0.2 mM Glucagon) (human glucagon receptor [3]): 18 nM
Molecule: [PhLac]TSEYSKYLDSRRAQDFVC(m‑dPEG24‑MAL)WLMNT-NH2 [[PLA6, E9 ,C24(1.2 kDaPEG)]Glucagon(aa6-29) -NH2]

IC50 (nM) (cAMP, inhibit 0.2 mM Glucagon) (human glucagon receptor [3]): 664 nM
Molecule: [PhLac]TSEYC(mPEG‑MAL 20 kDa)KYLDSRRAQDFVQWLMNT-NH2 [[PLA6, E9, C11(20kDaPEG)]Glucagon(aa6-29)-NH2]

cAMP Induction EC50 (human glucagon receptor [2]): 81 nM
Molecule: SQGTFTSEYSKYLDSRRAQDFVQFLLNT-NH2 [[desHis^1, Glu^9, Phe^25, Leu^27]Glucagon-NH2]

cAMP Induction EC50 (human glucagon receptor [2]): 318 nM | cAMP Inhibition IC50 (human glucagon receptor [2]): 102 nM
Molecule: SQLTFTSEYSKYLDSRRAQDFVQWLMNT-NH2 [[desHis^1, Leu^4, Glu^9] Glucagon-NH2]

IC50 (nM) (cAMP, inhibit 0.2 mM Glucagon) (human glucagon receptor [3]): 216 nM
Molecule: [PhLac]TC(mPEG‑MAL 5 kDa)EYSKYLDSRRAQDFVQWLMNT-NH2 [[PLA6, C8(5kDaPEG), E9]Glucagon(aa6-29) -NH2]
